Consider five molecules from patent US11667697 (VANDERBILT UNIVERSITY, dated 2023).

Experiment [1] has as its target T1, VACV B5 protein (vaccinia virus, UniProt Q01227 20-275). Briefly: cell-based or functional assay.
The target of experiment [2] is CPXV ortholog of B5 (cowpox virus). Briefly: cell-based or functional assay.
For experiment [3], the target named is MPXV ortholog of B5 (monkeypox virus). Briefly: lysate ELISA. For orientation: ELISA stands for enzyme-linked immunosorbent assay.
Experiment [4] deals with T1, VACV B5 protein. Nature of the experiment: lysate ELISA.
Experiment [5] concerns the target CPXV ortholog of B5 (cowpox virus). Briefly: lysate ELISA.
Experiment [6] addresses T1, VACV B5 protein. Briefly: purified antigen ELISA.
The target of experiment [7] is VARV ortholog of B5 (variola virus). Briefly: purified antigen ELISA.
Experiment [8] has as its target T2, VACV H3 protein (vaccinia virus, UniProt P07240 1-278).
T2 sequence: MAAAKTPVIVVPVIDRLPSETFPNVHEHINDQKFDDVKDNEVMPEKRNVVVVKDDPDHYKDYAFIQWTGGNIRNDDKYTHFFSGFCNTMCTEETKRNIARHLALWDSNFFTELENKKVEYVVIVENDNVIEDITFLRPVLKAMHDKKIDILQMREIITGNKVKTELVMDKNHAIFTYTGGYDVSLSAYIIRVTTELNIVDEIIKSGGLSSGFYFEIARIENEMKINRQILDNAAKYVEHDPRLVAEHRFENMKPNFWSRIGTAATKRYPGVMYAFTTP
Nature of the experiment: cell-based or functional assay.

Experiment [9] has as its target T2, VACV H3 protein. Briefly: lysate ELISA.
For experiment [10], the target named is T2, VACV H3 protein. Nature of the experiment: purified antigen ELISA.
Experiment [11] has as its target T3, VACV L1 protein (vaccinia virus, UniProt P07612 1-185).
T3 sequence: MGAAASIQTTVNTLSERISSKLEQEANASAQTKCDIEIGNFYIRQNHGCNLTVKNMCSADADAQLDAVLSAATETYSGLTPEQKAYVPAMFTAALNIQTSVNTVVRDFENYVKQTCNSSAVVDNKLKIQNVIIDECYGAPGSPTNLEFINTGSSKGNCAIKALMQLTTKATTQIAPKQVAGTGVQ
Nature of the experiment: cell-based or functional assay.

In experiment [12] the target is T3, VACV L1 protein. Nature of the experiment: lysate ELISA.
Experiment [13] addresses T3, VACV L1 protein. Nature of the experiment: purified antigen ELISA.
The target in experiment [14] is T4, VACV D8 protein (vaccinia virus, UniProt P04195 1-261).
T4 sequence: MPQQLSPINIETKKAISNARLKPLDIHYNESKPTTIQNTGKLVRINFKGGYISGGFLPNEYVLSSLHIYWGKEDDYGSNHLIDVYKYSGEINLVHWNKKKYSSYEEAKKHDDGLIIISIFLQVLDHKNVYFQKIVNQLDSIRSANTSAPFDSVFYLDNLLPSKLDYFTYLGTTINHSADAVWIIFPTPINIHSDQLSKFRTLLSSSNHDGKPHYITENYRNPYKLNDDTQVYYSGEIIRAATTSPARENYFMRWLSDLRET
Nature of the experiment: antigen ELISA/array/BLI.

B1: MPXV-92 (antibody)
chain 1: QVQLVESGPGLVKPSGTLSLTCAVSGGSISSSNWWSWVRQPPGKGLEWIGEIYHSGSTNYTPSLKSRVTISLDKSKNQFSLKLSSVTAADTAMYYCARNFYPGYLQYWGQGTLVTVSS
chain 2: QSALTQPASVSGSPGQSITISCTGTISDVGGYNYVSWYQQHPGKAPKLMIYDVNKRPSGVSNRFSGSKSGNT
The term EC50 denotes the concentration at which the effect is half-maximal. Lower therefore signals a more potent agent. For the molecule B1, the “PRNT Emax, VACV EV+C'” value in [1] came to 86%. Further, in [1], the “PRNT IC50, VACV EV+C'” value is 0.08 µg/mL. In addition, the “PRNT IC50, CPXV EV+C'” value in [2] came out at 0.5 µg/mL. In addition, the EC50 in [3] was determined as 0.046 µg/mL; in experiment [4] it was 0.064 µg/mL; in experiment [5], 0.014 µg/mL; in experiment [6], 0.7 µg/mL; in experiment [7] it was 1.2 µg/mL.

B2: MPXV-79 (antibody, V domains shown)
VH: QVQLVQSGAEVKKPGASVKVSCKASGYSFRSNGISWVRQAPGQGFEWLGWIAAYNGDTKYVQKFQGRLTMTTDTSTDTAYMELWSLRSDDTAVYYCARDPKLGRKGSAFDIWGQGTLVIVSS
VL: EIVLTQSPATLSLSPGGRATLSCRASQSVGNYLTWYQQKPGQAPRLLIFDGSTRATGIPARFSGSGSGTDFTLTISSLEPEDFAVYYCLQRSDLYTFGQGTKVDIK
notes: human IgG1, anti-H3
For the molecule B2, in [8], the “PRNT Emax, VACV MV+C'” value came to 62%. Further, the “PRNT IC50, VACV MV+C'” value in experiment [8] was 4.7 µg/mL. The figures for the EC50 in experiment [9] and in experiment [10] were 0.004 µg/mL and 0.06 µg/mL, respectively.

B3: MPXV-87 (antibody, V domains shown)
V domain 1: QVQLVQSGAEVKKPGASVKVSCKASGYTFTSHGIIWVRQAPGQGLEWMGWISVYNDNTNSAQKFQDRVTMTTATSTSTAYMELRSLRSDDTAVYYCARSSSGPRYYYYGMDVWGQGTTSP
V domain 2: QSVVTQPPSVSGAPGQRVTISCTGSSSNIGAGYAVHWYYQLPGIAPKLLIFGNNNRPSGVPDRFSGSKSGTSASLAITGLQAEDEADYYCQSYDSSLSGWVFGGGTQVTVL
notes: human IgG1, anti-L1
B3: in experiment [11], the “PRNT Emax, VACV MV” value worked out at 61%; the “PRNT Emax, VACV MV+C'” value worked out at 72%; the “PRNT IC50, VACV MV” value stood at 5 µg/mL; the “PRNT IC50, VACV MV+C'” value was 0.8 µg/mL. For the same molecule, in [12], the EC50 amounted to 0.01 µg/mL. For the same molecule, the EC50 in experiment [13] came to 0.3 µg/mL.

B4: VACV-77 (antibody, V domains shown)
VH: QVQLQESGPGLVKPSETLSLTCTVSGGSMSSYFWSWIRQPPGKGLEWIGYISYSGGTNYNPSLKSRVTISVDTSKNQFSLKLTSVTAADTAVYYCAREDRGSPDYWGQGTLVTVSS
VL: QSVLTQPPSVSAAPGRKVTISCSGSSSNIGNNYVSWYQQLPGTAPKLLIYDNYKRPSGIPDRFSGSKSGTSATLGITGLQTGDEADYYCGTWDLSLSAGVFGGGTKLTVL
For B4, the binding result in experiment [14] is given as “binds”.

B5: VACV-315 (antibody, V domains shown)
VH: EVQLLESGGGLVQPGGSLKLSCAASGFIFSNYAMGWVRQAPGKGLEWVSALSASDGVTSYADSVKGRFTISRDNSKNTMYLQMNRLRTEDTAIYFCAKGRARVNNIYRYFDHWGQGTLVTVSS
VL: QSVLTQPASVSGSPGQSITISCTGTSSDVGAYTFVSWYQHHPGKAPKLIIYEVSNRPSGVSDRFSGSKSGNTASLTISGLQAEDEADYYCNSYTTTSPWVFGGGTQLTVL
notes: human IgG1, anti-H3
With B5, in experiment [8], the “PRNT Emax, VACV MV+C'” value came to 72% and the “PRNT IC50, VACV MV+C'” value turned out to be 2.2 µg/mL. In [9], this molecule came in with an EC50 of 0.002 µg/mL. The same molecule returned an EC50 in [10] of 0.2 µg/mL.
